Results: patent US11879019B2, “Dual-enzyme responsive peptides” (THE REGENTS OF THE UNIVERSITY OF CALIFORNIA, priority 2016, dated 2024)
Entries after “also recorded” stand apart in the source; their conditions may differ. Read-outs that look alike come from different tables or passages of the source. Square brackets hold non-standard residues; d marks the D form. Side chains are listed from the residue outwards. Peptide text beside a SMILES is read from it. * marks the point of attachment. ξ: configuration not given here. X2 = CN(CCN*)C(=S)Oc1ccc2c3c1O[C@H]1C(=O)CC[C@@]4(O)[C@@H](C2)N(CC2CC2)CC[C@]314; X1 = CN(CCN*)C(=O)Oc1ccc2c3c1OC1C(=O)CCC4(O)C(C2)N(CC2CC2)CCC314; X3 = CC(=O)N[C@@H](CCCCN*)C(=O)Nc1ccc([N+](=O)[O-])cc1; X4 = CN(CCN*)C(=O)Oc1ccc([N+](=O)[O-])cc1; Trt = c1ccc(C(c2ccccc2)(c2ccccc2)*)cc1; pNA = O=[N+]([O-])c1ccc(N*)cc1; ξF = NC(Cc1ccccc1)C(=O)O; Boc = CC(C)(C)OC(=O)*; ξK = NCCCCC(N)C(=O)O; ξC = NC(CS)C(=O)O; ξA = CC(N)C(=O)O

Columns and labels:
trypsin and chymotrypsin [1] = assay: Trypsin + chymotrypsin assay (pNA release, absorbance at 405 nm); format: biochemical; settings: for absorbance increase at 405 nm (pNA release): trypsin + chymotrypsin
Description: Stock solutions of enzymes were prepared by dissolving trypsin (60 mg/ml) in 1 mM HCl and chymotrypsin (60 mg/ml) in pH 7.4 0.035M HEPES+0.1M NaCl. The peptide substrate, (Ac-AAF)K-pNA, was dissolved in DMSO to make a 1 mM stock solution.
(§1) To wells in a 96-well plate, 87.5 μL pH 7.4 0.035M HEPES+0.1M NaCl and 2.5 μL peptide substrate were added. Absorbance was measured using a plate reader at 405 nm. Then, 5 μL trypsin and 5 μL chymotrypsin were added to the wells, and absorbance was measured at pre-determined time points. Absorbance values were subtracted from initial reading of only buffer and peptide. When testing only one enzyme, 5 μL buffer were added to keep total volume per well at 100 μL. All conditions prepared and measured in triplicate.
as §1, with “Stock solutions of enzymes were prepared by dissolving trypsin (60 mg/ml) in 1 mM HCl and chymotrypsin (60 mg/ml) in pH 7.4 0.035M HEPES+0.1M NaCl. The peptide substrate, (Ac-AAF)K-pNA, was dissolved in DMSO to make a 1 mM stock solution. To” for “To”, “were” for “prepared and”

caspase 3 and trypsin = assay: Caspase 3 + trypsin assay (pNA release, absorbance at 405 nm); format: biochemical
Description: (§2) Caspase 3 was taken directly from stock solution containing 1000 U/μL. A stock solution of trypsin was prepared by dissolving the enzyme (5 mg/ml) in 1 mM HCl. The peptide substrates were dissolved in DMSO to make 10 mM solutions. These were then diluted to 2.5 mM with pH 7.5 0.1 M HEPES containing 10 mM DTT, 2 mM EDTA, and 10% v/v glycerol. In a 96-well plate, 84 μL of buffer and 5 μL peptide were mixed together before measuring the absorbance at 405 nm to serve as a blank. 1 μL caspase-3 was added, and the plate was incubated at 23° C. for 12-24 hours and absorbance was measured again. Then, 5 μL trypsin were added to the well and absorbance measurements were taken at pre-determined time points. All conditions prepared and measured in triplicate. The same protocol was used for caspase 8 assays, adjusting peptide substrate concentration as needed.

caspase 8 and trypsin = assay: Caspase 8 + trypsin assay (pNA release, absorbance at 405 nm); format: biochemical; settings: for cleavage by caspase 8 (absorbance increase): caspase 8 only, commercial single enzyme substrates
Description: as §2

papain and trypsin = assay: Papain + trypsin assay (pNA release, absorbance at 405 nm); format: biochemical
Description: Papain was reconstituted in deionized water at a concentration of 1 mg/ml. A stock solution of trypsin was prepared by dissolving the enzyme (10 mg/ml) in 1 mM HCl. The peptide substrate, (AcFG)K-pNA was dissolved in DMSO to make a 5 mM solution. Separately, 3M NaCl and 20 mM EDTA+50 mM cysteine (pH 6.2) solutions were prepared with deionized water. In a 96-well plate, 5 μL substrate were mixed with 45 μL NaCl and 40 μL EDTA+cysteine solutions. Absorbance was measured at 405 nm to serve as a blank. Then, 5 μL of both enzyme solutions were added, and absorbance measurements were taken at pre-determined time points. All conditions were prepared and measured in quadruplicate.

trypsin and chymotrypsin [2] = assay: pNA release assay of CAAK(F)-diamino-pNA; format: biochemical; settings: 2 mM, trypsin and/or chymotrypsin, 90 minutes, 37° C.
Description: A stock solution of the CAAK(F)-diamino-pNA (SEQ ID NO: 4) was prepared in dimethyl sulfoxide (DMSO) to produce a 16.0 mg/mL solution. A 7.5 mg/mL stock solution of the trypsin was prepared in 50 mM NH4HCO3 buffer (pH=8.05). A 7.5 mg/mL stock solution of chymotrypsin was prepared in 50 mM NH4HCO3 buffer (pH=8.05).
A 96 well plate was used for monitoring the solutions at 405 nm using a plate reader. 20 μL of the peptide was combined with 62.0/66.6 μL of no enzyme, trypsin only, chymotrypsin only, or with both enzymes respectively. All solutions were diluted to a total volume of 200 μL using 50 mM NH4HCO3 (pH=8.05). Blanks were prepared by combining the enzymes with DMSO/buffer and their absorbances were subtracted from the cleavage conditions. Additionally, the residual signal from the peptide in the presence of no enzymes was also used as a blank and subtracted out from enzymatic conditions.

[3] = for stability of the linker: over the entire pH range
Description: The stabilities of these linkages were assessed by HPLC by monitoring the relative amount of Naltrexone versus the intact peptide-Naltrexone conjugate.

[4] = 500 μM, caspase 8 for 24 hours before adding trypsin

Question: With `CC(=O)N[C@@H](C)C(=O)N[C@@H](C)C(=O)N[C@@H](Cc1ccccc1)C(=O)NCCCC[C@H](NC(C)=O)C(=O)Nc1ccc([N+](=O)[O-])cc1` [(AcAAF)K-pNA] as the compound, how does the “change in absorbance at 405 nm” value (trypsin and chymotrypsin [1]; 100 μM peptide, chymotrypsin only) read?
Answer: no change in absorbance

Question: What about the “absorbance increase at 405 nm” value (trypsin and chymotrypsin [1]; 100 μM peptide, trypsin only) of the same compound?
Answer: 0.016±0.002 AU

Question: What about the “absorbance increase at 405 nm (pNA release)” value (trypsin and chymotrypsin [1]; 100 μM substrate) of the same compound?
Answer: 0.070±0.002 AU

Question: And the “absorbance increase at 405 nm (pNA release)” value (trypsin and chymotrypsin [1]; 200 μM substrate)?
Answer: 0.147±0.002 AU

Question: What about the “absorbance increase at 405 nm (pNA release)” value (trypsin and chymotrypsin [1]; after five hours) of the same compound?
Answer: 0.039±0.003 AU

Question: Which “absorbance increase at 405 nm” value (caspase 3 and trypsin; 125 μM substrate, first caspase-3 then trypsin, over 60 minutes) does the source give for `CC(=O)N[C@@H](CCCCNC(=O)[C@H](CC(=O)O)NC(=O)[C@@H](NC(=O)[C@H](CCC(=O)O)NC(=O)[C@H](CC(=O)O)NC(C)=O)C(C)C)C(=O)Nc1ccc([N+](=O)[O-])cc1` [(AcDEVD)K-pNA] here?
Answer: 0.1±0.006 AU

Question: And the “pNA release relative to release from commercial substrate AcDEVD-pNA” value (caspase 3 and trypsin; caspase 3 digestion)?
Answer: 83%

Question: What about the absorbance increase (caspase 3 and trypsin; trypsin or caspase 3 only) of the same compound?
Answer: no absorbance increase

Question: What about the absorbance increase (caspase 8 and trypsin; [4]) of the same compound?
Answer: did not result in a significant absorbance increase

Question: With `CC(=O)N[C@@H](CCCCNC(=O)[C@H](CC(=O)O)NC(=O)[C@H](CCC(=O)O)NC(=O)[C@@H](NC(=O)[C@H](CC(=O)O)NC(C)=O)C(C)C)C(=O)Nc1ccc([N+](=O)[O-])cc1` [(AcDVED)K-pNA] (Ac-DVED-X3) as the compound, how does the pNA release (caspase 3 and trypsin; trypsin and caspase 3) read?
Answer: no pNA release

Question: With `CC(=O)N[C@@H](Cc1ccccc1)C(=O)NCC(=O)NCCCC[C@H](NC(C)=O)C(=O)Nc1ccc([N+](=O)[O-])cc1` [(AcFG)K-pNA] as the compound, how does the absorbance increase (papain and trypsin; each enzyme separately (papain only or trypsin only)) read?
Answer: no absorbance increase

Question: What about the pNA release (papain and trypsin; papain and trypsin, varying substrate concentrations) of the same compound?
Answer: substrate dependent

Question: With `CC[C@H](C)[C@H](NC(C)=O)C(=O)N[C@@H](CCC(=O)O)C(=O)N1CCC[C@H]1C(=O)N[C@@H](CC(=O)O)C(=O)NCCCC[C@H](NC(C)=O)C(=O)Nc1ccc([N+](=O)[O-])cc1` [(AcIEPD)K-pNA] (Ac-IEPD-X3) as the compound, how does the absorbance increase (caspase 8 and trypsin; [4]) read?
Answer: did not result in a significant absorbance increase

Question: What about the absorbance increase (caspase 8 and trypsin; caspase 8 and trypsin, initial experiments) of the same compound?
Answer: little to no absorbance increase

Question: Which “theoretical pNA released” value (trypsin and chymotrypsin [2]) does the source give for `CC(=O)NC(CS)C(=O)NC(C)C(=O)NC(C)C(=O)NC(CCCCNC(=O)C(N)Cc1ccccc1)C(=O)NCCN(C)C(=O)Oc1ccc([N+](=O)[O-])cc1` (stereo not shown) [CAAK(F)-diamino-pNA] (Ac-CAAK(Phe)-X4; configuration not given here) here?
Answer: 55%

Question: Which results are given for `CC(=O)NC(CSC(c1ccccc1)(c1ccccc1)c1ccccc1)C(=O)NC(C)C(=O)NC(C)C(=O)NC(CCCCNC(=O)C(Cc1ccccc1)NC(=O)OC(C)(C)C)C(=O)NCCN(C)C(=O)Oc1ccc2c3c1OC1C(=O)CCC4(O)C(C2)N(CC2CC2)CCC314` (stereo not shown) [NPC] (Ac-C(Trt)AAK([Phe-Boc])-X1; configuration not given here)?
Answer: Percent Degradation, t = 0.5 hr ([3]; conjugate without pH buffer): 0%; Percent Degradation, t = 24 hr ([3]; conjugate without pH buffer): 0%; stability of the linker [3]: very good stability; Percent Degradation, t = 0.5 hr ([3]; pH 2): 6.00%; Percent Degradation, t = 24 hr ([3]; pH 2): 12.30%; Percent Degradation, t = 0.5 hr ([3]; pH 4): 3.50%; Percent Degradation, t = 24 hr ([3]; pH 4): 2.89%; Percent Degradation, t = 0.5 hr ([3]; pH 7): 1.50%; Percent Degradation, t = 24 hr ([3]; pH 7): 3.62%; Percent Degradation, t = 0.5 hr ([3]; pH 9): 5.56%; Percent Degradation, t = 24 hr ([3]; pH 9): 5.17%; Percent Degradation, t = 0.5 hr ([3]; pH 12): 7.03%; Percent Degradation, t = 24 hr ([3]; pH 12): 6.94%

Question: With `CC(=O)NC(CS)C(=O)NC(C)C(=O)NC(C)C(=O)NC(CCCCNC(=O)C(N)Cc1ccccc1)C(=O)NCCN(C)C(=S)Oc1ccc2c3c1O[C@H]1C(=O)CC[C@@]4(O)[C@@H](C2)N(CC2CC2)CC[C@]314` (stereo partly shown) [NPT] (Ac-[ξC][ξA][ξA][ξK](ξF)-X2) as the compound, how does the “Percent Degradation, t = 0.5 hr” value ([3]; conjugate without pH buffer) read?
Answer: 0.51%

Question: What about the “Percent Degradation, t = 24 hr” value ([3]; conjugate without pH buffer) of the same compound?
Answer: 2.90%

Question: What about the “stability of the linker” value [3] of the same compound?
Answer: more stable than the carbamate linker

Question: What about the “Percent Degradation, t = 0.5 hr” value ([3]; pH 2) of the same compound?
Answer: 3.23%

Question: What about the “Percent Degradation, t = 24 hr” value ([3]; pH 2) of the same compound?
Answer: 4.10%

Question: And the “Percent Degradation, t = 0.5 hr” value ([3]; pH 4)?
Answer: 1.67%

Question: What about the “Percent Degradation, t = 24 hr” value ([3]; pH 4) of the same compound?
Answer: 2.04%

Question: What about the “Percent Degradation, t = 0.5 hr” value ([3]; pH 7) of the same compound?
Answer: 3.22%

Question: What about the “Percent Degradation, t = 24 hr” value ([3]; pH 7) of the same compound?
Answer: 3.59%

Question: And the “Percent Degradation, t = 0.5 hr” value ([3]; pH 9)?
Answer: 4.69%

Question: And the “Percent Degradation, t = 24 hr” value ([3]; pH 9)?
Answer: 3.37%

Question: And the “Percent Degradation, t = 0.5 hr” value ([3]; pH 12)?
Answer: 5.15%

Question: And the “Percent Degradation, t = 24 hr” value ([3]; pH 12)?
Answer: 6.72%

Question: For “AcDEVD-pNA: commercially available single enzyme caspase substrate (SEQ ID NO: 7)”, which “cleavage by caspase 8 (absorbance increase)” value (caspase 8 and trypsin) is on record?
Answer: cleaved as expected; also recorded: significant absorbance increase over time

Question: With “AcIEPD-pNA: commercially available single enzyme caspase substrate (SEQ ID NO: 8) (Ac-IEPD-pNA; SMILES CC[C@H](C)[C@H](NC(C)=O)C(=O)N[C@@H](CCC(=O)O)C(=O)N1CCC[C@H]1C(=O)N[C@@H](CC(=O)O)C(=O)Nc1ccc([N+](=O)[O-])cc1)” as the compound, how does the “cleavage by caspase 8 (absorbance increase)” value (caspase 8 and trypsin) read?
Answer: cleaved as expected; also recorded: significant absorbance increase over time
